Consider eleven sequences from the supplement of paper PMC9170038.

The data set deals with MS2 coat protein. Put plainly: apparent KD of MS2 coat protein; designed switch direction (-1 OFF switch, 1 ON switch): -1; higher = weaker reporter binding. The gist of the method:
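The reported apparent KD is a per-design median over clusters, from curve fits of normalised cluster fluorescence. Protein titrations used SNAP-549-labelled MS2 coat protein, doubled from 0.7 or 1.5 nM to 3 µM, in Tris-HCl pH 7.5 buffer with KCl, MgCl2, BSA, DTT, tRNA and Tween-20, with no input, 200 uM small-molecule ligand, or an oligonucleotide input. The RNA switches were transcribed on Illumina chips by stalled E. coli RNA polymerase.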

The mark [1] stands for this setting: input ligand: microRNA oligo, concentration not stated.
[2] abbreviates: Eterna round: R95, input ligand: microRNA oligo, concentration not stated.

For the sequence “GCAGCAAAUUCCACUAAAACCACAUGAGGAUCACCCAUGUCUCAGGAUAUGGUCUGGAUUACAGGCCAGAAGGGAGAAAGCUGC [Eli exng3 - 056] (Eterna round: R96, puzzle: Exclusion NG 3)”, the “apparent KD of MS2 coat protein” value (input ligand: FMN 200 uM) turned out to be 12.3 nM, the “apparent KD of MS2 coat protein” value under setting [1] worked out at 9.52 nM and the “apparent KD of MS2 coat protein” value (input ligand: none) amounted to 14.8 nM.
The corresponding values for “GCAGCAACUCUAAUUAAAACCACAUGAGGAUCACCCAUGUCUCAGGAUAUGGUCUGGAUUACAGGCCAGAAGGGAGAAAGCUGC [Eli exng3 - 051] (Eterna round: R96, puzzle: Exclusion NG 3)” are 15.9 nM, 14.9 nM and 17 nM.
“GCAGCAUAGAUAACAUACUGUUACAUGAGGAUCACCCAUGUACAGGAUAUGGUCUGGAUUACAGGCCAGAAGGGUACAAGCUGC [Eli exng3 - 021] (Eterna round: R96, puzzle: Exclusion NG 3)”: the “apparent KD of MS2 coat protein” value (input ligand: FMN 200 uM) is 10.8 nM, the “apparent KD of MS2 coat protein” value under setting [1] stood at 8.63 nM and the “apparent KD of MS2 coat protein” value (input ligand: none) was determined as 12.1 nM.
Turning to “GCAGCAUAUGUAGGAUAUCUGCACGUGUAGUGCAGAGAAGGACAUGAGGAUCACCCAUGUAAUUAAGAUCAAUUAUUAAGCUGC [ENG1/4-A3] (Eterna round: R96, puzzle: Exclusion NG 1)”, the “apparent KD of MS2 coat protein” value turned out to be 37.7 nM (input ligand: FMN 200 uM), 17.3 nM under setting [1] and 22.2 nM (input ligand: none).
Consider “GCAGCGUAUGUAGGAUAUCGGUCAGUUUCUGAUCGAGAAGGACAUGAGGAUCACCCAUGUAAAUUACCGUCUUUGACGGGCUGC [JL ENG1 3.68] (Eterna round: R96, puzzle: Exclusion NG 1)”, for which the “apparent KD of MS2 coat protein” value reads like this: (input ligand: FMN 200 uM) 20.5 nM; under setting [1], 14.1 nM; (input ligand: none) 18.1 nM.
As for “GCAGCUAACACAGAUAUGUGCACAUGAGGAUCACCCAUGUCACAGGAUAUGGACUGGAUUACAGUCCAGAAGGGUGAAUGCUGC [Zipper Style 6] (Eterna round: R96, puzzle: Exclusion NG 3)”, the “apparent KD of MS2 coat protein” value is, setting by setting: (input ligand: FMN 200 uM) 10.2 nM; under setting [1], 7.97 nM; (input ligand: none) 14 nM.
The corresponding values for “GCAGCUAAUCGAGGAUAUCAGCACGUGUAGUGCUGAGAAGGCGACAUGAGGAUCACCCAUGUGAUCAAUUAAUAUUAAUGCUGC [ENG1/11-A3] (Eterna round: R96, puzzle: Exclusion NG 1)” are 893 nM, 308 nM and 414 nM.
For “GCAGCUAAUGCAGGAUAUCAGCACGUGUAGUGCUGAGAAGGGCACAUGAGGAUCACCCAUGUGAUCAAUUAAUAUUAAUGCUGC [ENG1/11-B3] (Eterna round: R96, puzzle: Exclusion NG 1)”, in that order: 328 nM, 16.2 nM and 20.5 nM.
“GCAGGAUAAGUGAGGAUAUACCUAUGGAUACAUAGGUAGAAGGCACAUGAGGAUCACCCAUGUUACUCGCCUGC [Fiskers BMX 4 - 75] (puzzle: Brourd's mod of Exclusion 4)”: the “apparent KD of MS2 coat protein” value reads like this: (Eterna round: R95, input ligand: FMN 200 uM) 41.7 nM; under setting [2], 12.9 nM; (Eterna round: R95, input ligand: none) 10.9 nM.
For the sequence “GCAGGAUAAGUGAGGAUAUACCUCUGGAUACAGAGGUAGAAGGCACAUGAGGAUCACCCAUGUCAUUCACCUGC [Fiskers BMX 4 - 77] (puzzle: Brourd's mod of Exclusion 4)”, the “apparent KD of MS2 coat protein” value under setting [2] was determined as 14.4 nM.
On to “GCAGGUCAAGGAUAUACAUGAGGAUCACCCAUGUGAUUAGCAGUCCUCGGACUGCAAUGUAGAAGGUGACCUGC [E3/2-C2] (Eterna round: R97, puzzle: Exclusion 3)”, for which the “apparent KD of MS2 coat protein” value was determined as 2140 nM (input ligand: FMN 200 uM) and 329 nM (input ligand: none).
